Reference: patent US20150315296A1 (Hoffmann-La Roche, published 2015)

Columns and labels:
human Ang-2-RBD-Fc = biological target: T1, human Ang-2-RBD-Fc (human, UniProt O15123 275-496, limits assumed); test: SPR (Biacore T200), antibody captured by anti-human F(ab')2, Ang2-RBD-Fc in solution, 25 C, apparent KD, 1:1 Langmuir
T1 construct: domain: RBD; not shown: Fc part
T1 sequence (looked up): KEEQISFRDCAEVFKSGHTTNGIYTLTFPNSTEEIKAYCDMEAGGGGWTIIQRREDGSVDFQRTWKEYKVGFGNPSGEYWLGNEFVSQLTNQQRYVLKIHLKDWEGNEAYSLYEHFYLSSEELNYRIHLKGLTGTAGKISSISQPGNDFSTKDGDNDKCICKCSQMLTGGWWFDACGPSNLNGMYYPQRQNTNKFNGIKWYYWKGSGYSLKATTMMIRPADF
Description: (§1) Binding of indicated antibodies to human Ang-2-RBD-Fc was investigated by surface plasmon resonance using a BIACORE® T200 instrument (GE Healthcare). Around 8000 (RU) of goat anti human F(ab′)₂ (10 μg/ml anti human F(ab)′₂; Order Code: 28958325; GE Healthcare Bio-Sciences AB, Sweden) were coupled on a Series S CM5 chip (GE Healthcare BR-1005-30) at pH 5.0 by using an amine coupling kit supplied by the GE Healthcare. HBS-N(10 mM HEPES, 150 mM NaCl pH 7.4, GE Healthcare) was used as running buffer during the immobilization procedure. For the following kinetic characterization, sample and running buffer was PBS-T (10 mM phosphate buffered saline including 0.05% Tween20) at pH 7.4. The flow cell was set to 25° C.—and the sample block set to 12° C.—and primed with running buffer twice prior to kinetic characterization.
The bispecific antibody was captured by injecting a 5 nM solution for 25 sec at a flow of 5 μl/min. The association was measured by injection of human Ang2-RBD-Fc in various concentrations in solution for 120 sec at a flow of 30 μl/min starting with 100 nM in 1:3 serial dilutions. The dissociation phase was monitored for up to 180 sec and triggered by switching from the sample solution to running buffer. The surface was regenerated by 60 sec washing with a Glycine pH 2.1 solution at a flow rate of 30 μl/min Bulk refractive index differences were corrected by subtracting the response obtained from a goat anti human F(ab′)₂ surface. Blank injections are also subtracted (=double referencing). For calculation of apparent KD and other kinetic parameters the Langmuir 1:1 model was used.

human VEGFA-121-His = biological target: T2, human VEGFA-121-His (human, UniProt P15692-9 27-147); test: SPR (Biacore T200), VEGFA-121-His amine-coupled on C1 chip, antibody in solution, 25 C, 1:1 Langmuir
T2 construct: also called VEFGA-121-His; not shown: His tag
T2 sequence (looked up): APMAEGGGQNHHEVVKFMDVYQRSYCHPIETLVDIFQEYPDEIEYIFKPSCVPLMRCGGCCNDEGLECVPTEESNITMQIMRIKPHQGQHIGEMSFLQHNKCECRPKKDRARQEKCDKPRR
Description: as §1, with “VEGFA-121” for “Ang-2-RBD-Fc”, “Aim for 50 RU” for “Around 8000 (RU)”, “VEFGA-121-His” for “goat anti human F(ab′)₂ (10 μg/ml anti human F(ab)′₂; Order Code: 28958325; GE Healthcare Bio-Sciences AB, Sweden)”, “C1” for “CM5”, “BR-1005-35)” for “BR-1005-30)”
The association was measured by injection the indicated antibody in various concentrations in solution for 180 sec at a flow of 30 μl/min starting with 100 nM in 1:3 serial dilutions. The dissociation phase was monitored for up to 300 sec and triggered by switching from the sample solution to running buffer. The surface was regenerated by 30 sec washing with a 0.85% H₃PO₄ (phosphoric acid) solution at a flow rate of 30 μl/min Bulk refractive index differences were corrected by subtracting the response obtained from a anti His antibody surface. Blank injections are also subtracted (=double referencing). For calculation of KD and other kinetic parameters the Langmuir 1:1 model was used.

B1: xFab-Fab<ANG2-VEGF>-uncharged (Ang2VEGF-0452) (bispecific antibody)
light 1: QPGLTQPPSVSVAPGQTARITCGGNNIGSKSVHWYQQKPGQAPVLVVYDDSDRPSGIPERFSGSNSGNTATLTISRVEAGDEADYYCQVWDSSSDHYVFGTGTKVTVLRTVAAPSVFIFPPSDEQLKSGTASVVCLLNNFYPREAKVQWKVDNALQSGNSQESVTEQDSKDSTYSLSSTLTLSKADYEKHKVYACEVTHQGLSSPVTKSFNRGEC
heavy: not shown
light 2: EVQLVESGGGLVQPGGSLRLSCAASGYTFTNYGMNWVRQAPGKGLEWVGWINTYTGEPTYAADFKRRFTFSLDTSKSTAYLQMNSLRAEDTAVYYCAKYPHYYGSSHWYFDVWGQGTLVTVSSASVAAPSVFIFPPSDEQLKSGTASVVCLLNNFYPREAKVQWKVDNALQSGNSQESVTEQDSKDSTYSLSSTLTLSKADYEKHKVYACEVTHQGLSSPVTKSFNRGEC
notes: Bivalent, Fc-free CrossFab(VH-VL)-Fab format
Kd (human Ang-2-RBD-Fc): 3 nM | Kd (human VEGFA-121-His): 0.35 nM

B2: xFab2-Fab<ANG2-VEGF>-uncharged (Ang2VEGF-0453) (bispecific antibody)
light 1: QPGLTQPPSVSVAPGQTARITCGGNNIGSKSVHWYQQKPGQAPVLVVYDDSDRPSGIPERFSGSNSGNTATLTISRVEAGDEADYYCQVWDSSSDHYVFGTGTKVTVLRTVAAPSVFIFPPSDEQLKSGTASVVCLLNNFYPREAKVQWKVDNALQSGNSQESVTEQDSKDSTYSLSSTLTLSKADYEKHKVYACEVTHQGLSSPVTKSFNRGEC
heavy: not shown
light 2: EVQLVESGGGLVQPGGSLRLSCAASGYTFTNYGMNWVRQAPGKGLEWVGWINTYTGEPTYAADFKRRFTFSLDTSKSTAYLQMNSLRAEDTAVYYCAKYPHYYGSSHWYFDVWGQGTLVTVSSASVAAPSVFIFPPSDEQLKSGTASVVCLLNNFYPREAKVQWKVDNALQSGNSQESVTEQDSKDSTYSLSSTLTLSKADYEKHKVYACEVTHQGLSSPVTKSFNRGEC
notes: Trivalent, Fc-free (CrossFab VH-VL)2-Fab format
Kd (human Ang-2-RBD-Fc): 5 nM | Kd (human VEGFA-121-His): 0.22 nM

B3: xFab2-Fab<ANG2-VEGF>-charged (Ang2VEGF-0448) (bispecific antibody)
light 1: QPGLTQPPSVSVAPGQTARITCGGNNIGSKSVHWYQQKPGQAPVLVVYDDSDRPSGIPERFSGSNSGNTATLTISRVEAGDEADYYCQVWDSSSDHYVFGTGTKVTVLRTVAAPSVFIFPPSDKRLKSGTASVVCLLNNFYPREAKVQWKVDNALQSGNSQESVTEQDSKDSTYSLSSTLTLSKADYEKHKVYACEVTHQGLSSPVTKSFNRGEC
heavy: not shown
light 2: EVQLVESGGGLVQPGGSLRLSCAASGYTFTNYGMNWVRQAPGKGLEWVGWINTYTGEPTYAADFKRRFTFSLDTSKSTAYLQMNSLRAEDTAVYYCAKYPHYYGSSHWYFDVWGQGTLVTVSSASVAAPSVFIFPPSDEQLKSGTASVVCLLNNFYPREAKVQWKVDNALQSGNSQESVTEQDSKDSTYSLSSTLTLSKADYEKHKVYACEVTHQGLSSPVTKSFNRGEC
notes: as for B2
Kd (human Ang-2-RBD-Fc): 4 nM | Kd (human VEGFA-121-His): 0.18 nM

B4: xFab-Fab<ANG2-VEGF>-charged (Ang2VEGF-0447) (bispecific antibody)
light 1: QPGLTQPPSVSVAPGQTARITCGGNNIGSKSVHWYQQKPGQAPVLVVYDDSDRPSGIPERFSGSNSGNTATLTISRVEAGDEADYYCQVWDSSSDHYVFGTGTKVTVLRTVAAPSVFIFPPSDKRLKSGTASVVCLLNNFYPREAKVQWKVDNALQSGNSQESVTEQDSKDSTYSLSSTLTLSKADYEKHKVYACEVTHQGLSSPVTKSFNRGEC
heavy: not shown
light 2: EVQLVESGGGLVQPGGSLRLSCAASGYTFTNYGMNWVRQAPGKGLEWVGWINTYTGEPTYAADFKRRFTFSLDTSKSTAYLQMNSLRAEDTAVYYCAKYPHYYGSSHWYFDVWGQGTLVTVSSASVAAPSVFIFPPSDEQLKSGTASVVCLLNNFYPREAKVQWKVDNALQSGNSQESVTEQDSKDSTYSLSSTLTLSKADYEKHKVYACEVTHQGLSSPVTKSFNRGEC
notes: as for B1
Kd (human Ang-2-RBD-Fc): 3 nM | Kd (human VEGFA-121-His): 0.36 nM
